These results are taken from paper PMC7756681, “Functional Hybrid Molecules for the Visualization of Cancer: PESIN‐Homodimers Combined with Multimodal Molecular Imaging Probes for Positron Emission Tomography and Optical Imaging: Suited for Tracking of GRPR‐Positive Malignant Tissue” (Chemistry (Weinheim an Der Bergstrasse, Germany), 2020).

A short description of series [1]: LogD determination of 68Ga-labeled MIUs and bioconjugates (water/1-octanol partition, γ-counter). As to conditions: pH 7.4. Here is the method: Following the synthesis of the MIUs 6 a–13 a and the corresponding bioconjugates 6–13, the radiolabeling efficiency of the compounds with ^68Ga^3+ was investigated. […] In the following, we investigated the lipophilicity of the MIUs [^68Ga]6 a–[^68Ga]13 a and their bioconjugates [^68Ga]6–[^68Ga]13 (Table 1 and Figure 2 C,D).
(§1) A solution of the respective multimodal imaging unit (MIU) 6a – 13a (5 nmol) or multimodal imaging agent 6 - 14 (5 nmol) in H2O (Tracepur quality, 1mM) was added to 90 - 120 MBq of [68Ga]GaCl in a solution obtained by fractioned elution of an IGG 68Ge/68Ga generator system […]
(§2) with HCl (0.1 M, 1.6 mL) and subsequent titration to pH 3.5 – 4.2 by addition of sodium acetate solution (1.25 M, 50 – 75 µL). All labeling experiments were performed by addition of 2 mg ascorbic acid to suppress radiolysis-induced product fragmentation. In the labeling experiments of the MIUs 6a – 13a, 1 - 4 mg TCEP x HCl were added and the pH was adjusted to 3.5 – 4.2 by addition of sodium acetate solution (1.25 M). After reaction for 10 min at 45°C, the reaction mixtures were analyzed by analytical radio-HPLC.
(§3) For 68Ga-6/6a – 68Ga-13/13a, the water/1-octanol partition coefficient (log ) was determined by […]
adding 5 µL of the respectively 68Ga-labeled compound (0.8 – 1.2 MBq) to a mixture of phosphate buffer (0.05 M, pH 7.4, 795 µL) and 1-octanol (800 µL). The mixtures were intensively shaken for 5 minutes on a vibrating plate. After subsequent centrifugation at 13 000 rpm for 5 min, 125 µL were taken from each phase and measured in a γ-counter. The logD values were calculated from three or four independent experiments, each performed in triplicate.
For 14, the water/1-octanol partition coefficient (logD) was determined by semipreparative HPLC.
For this purpose, 10 µL solution (c = 5 x 10-4 mol/L) of the substance were added to a mixture of 1 mL 1-octanol and 990 µL phosphate buffered solution (0.05 M, pH 7.4) and the mixture was vigorously shaken for 5 minutes. After centrifugation, the phases were separated and both phases were analyzed by semipreparative HPLC. The logD was determined by three separate measurements, each experiment performed in triplicate.
(§4) Competitive receptor binding assay
(§5) Stably GRPR-transfected Human Embryonic Kidney 293 cells (HEK-GRPR) were cultured at 37°C in Dulbecco’s Modified Eagle’s Medium (DMEM, high glucose, GlutaMax-I, 500 mL) […]
(§6) a humidified atmosphere containing 5 % CO2. The medium was exchanged every two or three days and cells were split at >75 % confluence. In vitro binding affinities were determined via competitive displacement experiments which were performed at least trice, each experiment performed in triplicate. A Millipore Multiscreen punch kit and Millipore 96 well filter plates (pore size 1.2 µm) were used. The plates were incubated with PBS/BSA (1%) solution (each well 200 µL) for one hour before use. HEK-GRPR cells were harvested and suspended carefully in Opti- […]

A short description of series [2]: Photophysical properties (absorption and emission spectra in PBS). It counts as physicochemical. Particulars: for λem: 1×10^−5 mol L^−1, excitation wavelength λex=400 nm. The source says: After studying the chemical and biological properties of the MIUs and their corresponding multimodal imaging agents, the photophysical properties of the substances were finally under investigation. Here, we found no significant decrease or shift of the optical and fluorescent characteristics of the bioconjugates compared to the MIUs (Table 2).
Fig. S27 Normalized absorption and emission spectra of 7 (left) and 7a (right), recorded in PBS
at a concentration of c = 1.0 x 10-5 mol/L, emission wavelength stated in the graph (bottom, left
Fig. S28 Normalized absorption and emission spectra of 8 (left) and 8a (right), recorded in PBS
Fig. S29 Normalized absorption and emission spectra of 9 (left) and 9a (right), recorded in PBS […]
Fig. S30 Normalized absorption and emission spectra of 10 (left) and 10a (right), recorded in
PBS at a concentration of c = 1.0 x 10-5 mol/L, emission wavelength stated in the graph (bottom,
Fig. S31 Normalized absorption and emission spectra of 11 (left) and 11a (right), recorded in
Fig. S32 Normalized absorption and emission spectra of 12 (left) and 12a (right), recorded in […]

Another series deals with PC-3 cells. Briefly: Confocal fluorescence microscopy on GRPR-positive PC-3 cells. Type of series: cell-based, human. As to conditions: 10 μM, 4 h incubation. Here is the method: Figure 4 Confocal fluorescence microscopy images for pyridinium-based bioconjugate […]). […] (B) NIR detector window (660-720 nm, 6). (C) Transmitted light. […] After one hour of incubation at ambient temperature, the solution was filtrated and the filters were washed with cold PBS (3 times). The filters were collected and measured by γ-counting. […] were calculated by fitting the obtained data via a nonlinear regression analysis using GraphPad Prism Software (v5.04). […] PC-3 cells were cultured at 37°C in RPMI 1640 medium supplemented with 10% FCS, 1% L-Glutamine and 1% PenStrep in a humidified atmosphere containing 5% CO2. […] Fluorescence microscopy was performed on a Leica TCS SP8 confocal microscope with laser excitation wavelengths of 405 and 638 nm. Overlays of microscopies were generated directly with the operating software or afterwards using FIJI software (v1.50e). PC-3 cells (4 x 104) were seeded two days prior to the measurements in six-well culture plates, each well was equipped with cover slips for microscopy. Medium was exchanged after 24h. After 2 days, the medium was removed and the cells were washed carefully with PBS. Then, 1 mL of a 10 μM solution of 6 in antibiotic-free medium was added, followed by incubation for 4h. […]

Series [3] has as its target T1, gastrin-releasing peptide receptor (GRPR) (Homo sapiens, UniProt P30550).
T1 construct: host or cells: Human Embryonic Kidney 293 cells (HEK-GRPR)
Put plainly: Competitive displacement assay on stably GRPR-transfected HEK cells using [125I]-Tyr4-bombesin. Type of series: binding. As to conditions: [125I]-Tyr4-bombesin as competitor, 1 h, ambient temperature, read-out: IC50 (GRPR affinity). How it is done: as §4, §5
as §6, with “Opti-MEM I (GlutaMAX I) medium. 50 µL of a cell suspension containing […] were seeded in each well. To this, a total volume of 50 µL was added to each well, containing 25 µL (0.012” for “Opti-”
The competitor was added in 11 increasing concentrations ranging from 0.25 – 500 nM for 6 – […]
binding of the radioligand. After one hour of incubation at ambient temperature, the solution was filtrated and the filters were washed with cold PBS (3 times). The filters were collected and […]

The format of series [4] is physicochemical. Particulars: pH 7.4. How it is done: as §1, §2, §3
adding 5 µL of the respectively 68Ga-labeled compound (0.8 – 1.2 MBq) to a mixture of phosphate buffer (0.05 M, pH 7.4, 795 µL) and 1-octanol (800 µL). […] After subsequent centrifugation at 13 000 rpm for 5 min, 125 µL were taken from each phase and measured in a γ-counter. The logD values were calculated from three or four independent experiments, each performed in triplicate.
For 14, the water/1-octanol partition coefficient (logD) was determined by semipreparative HPLC. […]

Structures are written as SMILES. Where two headings read alike, the source gives them in different places.

T1 sequence (P30550 whole entry, species assumed): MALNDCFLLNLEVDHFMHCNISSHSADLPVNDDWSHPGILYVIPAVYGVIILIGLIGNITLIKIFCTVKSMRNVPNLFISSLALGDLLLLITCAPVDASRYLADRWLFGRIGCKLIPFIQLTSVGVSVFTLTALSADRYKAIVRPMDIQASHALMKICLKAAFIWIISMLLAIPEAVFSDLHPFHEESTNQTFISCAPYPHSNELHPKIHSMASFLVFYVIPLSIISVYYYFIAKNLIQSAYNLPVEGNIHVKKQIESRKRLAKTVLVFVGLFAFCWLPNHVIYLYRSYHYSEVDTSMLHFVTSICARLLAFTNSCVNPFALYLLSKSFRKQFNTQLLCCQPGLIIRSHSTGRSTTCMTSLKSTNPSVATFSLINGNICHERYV

In the case of `CSCC[C@H](NC(=O)[C@H](CC(C)C)NC(=O)[C@H](Cc1c[nH]cn1)NC(=O)CNC(=O)[C@@H](NC(=O)[C@H](C)NC(=O)[C@H](Cc1c[nH]c2ccccc12)NC(=O)[C@H](CCC(N)=O)NC(=O)CCOCCOCCOCCOCCNC(=O)CON=Cc1ccc(C(=O)NCCCN(CCCNC(=O)c2ccc(C=NOCC(=O)NCCOCCOCCOCCOCCC(=O)N[C@@H](CCC(N)=O)C(=O)N[C@@H](Cc3c[nH]c4ccccc34)C(=O)N[C@@H](C)C(=O)N[C@H](C(=O)NCC(=O)N[C@@H](Cc3c[nH]cn3)C(=O)N[C@@H](CC(C)C)C(=O)N[C@@H](CCSC)C(N)=O)C(C)C)cc2)CC(=O)N[C@H](CSC2CC(=O)N(CCN3C(=O)CC(SC[C@H](NC(=O)[C@H](CCCC[n+]4c(C)cc(/C=C/c5cc6c7c(c5)CCCN7CCC6)cc4C)NC(=O)CC[C@H](C(=O)O)N4CCN(CC(=O)O)CCN(CC(=O)O)CC4)C(N)=O)C3=O)C2=O)C(=O)NCCOCCOCC(N)=O)cc1)C(C)C)C(N)=O` (some centres unmarked) [Compound 6], the logD in series [1] is -1.71 ± 0.05. Moreover, in series [2] (1×10^−5 mol L^−1), the “Log ϵ” value was 4.08 M ^−1 cm^−1 and the λ max is recorded as 510 nm. Besides, the λem in series [2] was 630 nm. Besides, the “cellular localization of the agent” value with PC-3 cells was “cytoplasmic localization”. Also, in series [3], the IC50 turned out to be 19 ± 1.13 nM.
Take `CSCC[C@H](NC(=O)[C@H](CC(C)C)NC(=O)[C@H](Cc1c[nH]cn1)NC(=O)CNC(=O)[C@@H](NC(=O)[C@H](C)NC(=O)[C@H](Cc1c[nH]c2ccccc12)NC(=O)[C@H](CCC(N)=O)NC(=O)CCOCCOCCOCCOCCNC(=O)CON=Cc1ccc(C(=O)NCCCN(CCCNC(=O)c2ccc(C=NOCC(=O)NCCOCCOCCOCCOCCC(=O)N[C@@H](CCC(N)=O)C(=O)N[C@@H](Cc3c[nH]c4ccccc34)C(=O)N[C@@H](C)C(=O)N[C@H](C(=O)NCC(=O)N[C@@H](Cc3c[nH]cn3)C(=O)N[C@@H](CC(C)C)C(=O)N[C@@H](CCSC)C(N)=O)C(C)C)cc2)CC(=O)N[C@H](CSC2CC(=O)N(CCN3C(=O)CC(SC(C)(C)C)C3=O)C2=O)C(=O)NCCOCCOCC(N)=O)cc1)C(C)C)C(N)=O` (some centres unmarked) [Compound 14]: the logD in series [4] was -0.88 ± 0.04. Further, the IC50 in series [3] came out at 18.7 ± 1.37 nM.
The molecule `CSCC[C@H](NC(=O)[C@H](CC(C)C)NC(=O)[C@H](Cc1c[nH]cn1)NC(=O)CNC(=O)[C@@H](NC(=O)[C@H](C)NC(=O)[C@H](Cc1c[nH]c2ccccc12)NC(=O)[C@H](CCC(N)=O)NC(=O)CCOCCOCCOCCOCCNC(=O)CON=Cc1ccc(C(=O)NCCCN(CCCNC(=O)c2ccc(C=NOCC(=O)NCCOCCOCCOCCOCCC(=O)N[C@@H](CCC(N)=O)C(=O)N[C@@H](Cc3c[nH]c4ccccc34)C(=O)N[C@@H](C)C(=O)N[C@H](C(=O)NCC(=O)N[C@@H](Cc3c[nH]cn3)C(=O)N[C@@H](CC(C)C)C(=O)N[C@@H](CCSC)C(N)=O)C(C)C)cc2)CC(=O)N[C@H](CSC2CC(=O)N(CCN3C(=O)CC(SC[C@H](NC(=O)[C@H](CCCC[n+]4c(C)cc(/C=C/c5ccc(N(C)C)cc5)cc4C)NC(=O)CC[C@H](C(=O)O)N4CCN(CC(=O)O)CCN(CC(=O)O)CC4)C(N)=O)C3=O)C2=O)C(=O)NCCOCCOCC(N)=O)cc1)C(C)C)C(N)=O` (some centres unmarked) [Compound 7] had a logD in series [1] of -2 ± 0.01. Also, in series [2] (1×10^−5 mol L^−1), the “Log ϵ” value was 4.23 M ^−1 cm^−1, the Stokes shift amounted to 140 nm and the λ max was determined as 460 nm. In series [2], this molecule showed a λem of 600 nm. For the same molecule, the IC50 in series [3] worked out at 16.5 ± 0.25 nM.

Usually logD stands for lipophilicity at a set pH, counting ionised and neutral species. Low values mean lower lipophilicity, high ones higher lipophilicity. As usually defined, the IC50 is the concentration that gives 50% inhibition.
